The binders below were run against FRMPD4, Q14CM0 (assay: holdup assay). Conditions: plain residues with an end cap or a label only (N-terminal biotin on a linker: ado-ado).
FRMPD4, Q14CM0, sequence (Q14CM0 67-160): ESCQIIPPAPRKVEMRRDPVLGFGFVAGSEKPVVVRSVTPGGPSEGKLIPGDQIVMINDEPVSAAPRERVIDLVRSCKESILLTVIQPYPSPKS
Set-up: key: below the threshold = too weak to quantify, mostly under pKd 3.1 to 4
With QGLAERISVL [PRKD2, Q9BZL6] the pKd was 3.83.

What follows are binders tested against NOS1, P29475 (assay: holdup assay). Conditions: plain residues with an end cap or a label only (N-terminal biotin on a linker: ado-ado).
NOS1, P29475, sequence (P29475 9-101): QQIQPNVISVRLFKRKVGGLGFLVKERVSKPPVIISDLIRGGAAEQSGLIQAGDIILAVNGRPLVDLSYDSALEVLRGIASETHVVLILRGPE
Set-up: key: below the threshold = too weak to quantify, mostly under pKd 3.1 to 4
QGLAERISVL [PRKD2, Q9BZL6] showed a pKd of 3.88.

Each binder was assayed against T1, TJP3_3, O95049 (assay: holdup assay). Conditions: plain residues with an end cap or a label only (N-terminal biotin on a linker: ado-ado).
T1 sequence (O95049 375-456, limits assumed, looked up): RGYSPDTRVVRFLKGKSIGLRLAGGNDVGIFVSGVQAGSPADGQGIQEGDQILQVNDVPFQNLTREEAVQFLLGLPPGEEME
Set-up: key: below the threshold = too weak to quantify, mostly under pKd 3.1 to 4
In the case of QGLAERISVL [PRKD2, Q9BZL6], the pKd is reported as “below the threshold”.

The binders below were run against SNX27, Q96L92 (assay: holdup assay). Conditions: plain residues with an end cap or a label only (N-terminal biotin on a linker: ado-ado).
Set-up: key: below the threshold = too weak to quantify, mostly under pKd 3.1 to 4
With QGLAERISVL [PRKD2, Q9BZL6] the pKd was 4.78.

These binders were tested against T2, MPDZ_12, O75970 (assay: holdup assay). Conditions: plain residues with an end cap or a label only (N-terminal biotin on a linker: ado-ado).
T2 sequence (O75970 1857-1958, limits assumed, looked up): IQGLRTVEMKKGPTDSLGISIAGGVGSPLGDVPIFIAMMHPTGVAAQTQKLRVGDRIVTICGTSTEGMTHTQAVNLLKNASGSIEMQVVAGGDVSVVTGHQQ
Set-up: key: below the threshold = too weak to quantify, mostly under pKd 3.1 to 4
With QGLAERISVL [PRKD2, Q9BZL6] the pKd was “below the threshold”.

Each binder was assayed against MAGI2_6, Q86UL8 (assay: holdup assay). Conditions: plain residues with an end cap or a label only (N-terminal biotin on a linker: ado-ado).
MAGI2_6, Q86UL8, sequence (Q86UL8 1141-1229): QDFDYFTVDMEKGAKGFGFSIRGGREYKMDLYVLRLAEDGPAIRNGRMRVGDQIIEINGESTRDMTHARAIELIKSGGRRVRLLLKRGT
Set-up: key: below the threshold = too weak to quantify, mostly under pKd 3.1 to 4
Work on QGLAERISVL [PRKD2, Q9BZL6] yielded a pKd of 3.98.

The binders below were run against Inadl_4, Q8NI35 (assay: holdup assay). Conditions: plain residues with an end cap or a label only (N-terminal biotin on a linker: ado-ado).
Inadl_4, Q8NI35, sequence (Q8NI35 547-651): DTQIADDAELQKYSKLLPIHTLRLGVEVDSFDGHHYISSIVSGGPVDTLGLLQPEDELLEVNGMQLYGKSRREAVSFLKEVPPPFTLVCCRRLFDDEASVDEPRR
Set-up: key: below the threshold = too weak to quantify, mostly under pKd 3.1 to 4
For QGLAERISVL [PRKD2, Q9BZL6], the pKd was “below the threshold”.

Each binder was assayed against T3, DFNB31_2, Q9P202 (assay: holdup assay). Conditions: plain residues with an end cap or a label only (N-terminal biotin on a linker: ado-ado).
T3 sequence (Q9P202 274-371, limits assumed, looked up): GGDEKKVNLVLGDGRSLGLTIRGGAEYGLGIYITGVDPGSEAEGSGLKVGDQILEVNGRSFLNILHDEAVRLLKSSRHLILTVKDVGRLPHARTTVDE
Set-up: key: below the threshold = too weak to quantify, mostly under pKd 3.1 to 4
For QGLAERISVL [PRKD2, Q9BZL6], the pKd was “below the threshold”.

The binders below were run against T4, CARD11, Q9BXL7 (assay: holdup assay). Conditions: plain residues with an end cap or a label only (N-terminal biotin on a linker: ado-ado).
T4 sequence (Q9BXL7 662-765, limits assumed, looked up): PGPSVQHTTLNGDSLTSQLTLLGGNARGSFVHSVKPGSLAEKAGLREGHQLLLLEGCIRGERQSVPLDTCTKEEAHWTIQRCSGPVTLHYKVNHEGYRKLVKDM
Set-up: key: below the threshold = too weak to quantify, mostly under pKd 3.1 to 4
In the case of QGLAERISVL [PRKD2, Q9BZL6], the pKd is reported as “below the threshold”.

The binders below were run against T5, DFNB31_1, Q9P202 (assay: holdup assay). Conditions: plain residues with an end cap or a label only (N-terminal biotin on a linker: ado-ado).
T5 sequence (Q9P202 135-233, limits assumed, looked up): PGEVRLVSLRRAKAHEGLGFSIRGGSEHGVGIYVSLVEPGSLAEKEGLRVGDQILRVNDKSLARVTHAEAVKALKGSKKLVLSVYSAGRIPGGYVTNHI
Set-up: key: below the threshold = too weak to quantify, mostly under pKd 3.1 to 4
With QGLAERISVL [PRKD2, Q9BZL6] the pKd was “below the threshold”.

Each binder was assayed against T6, ARHGAP21, Q5T5U3 (assay: holdup assay). Conditions: plain residues with an end cap or a label only (N-terminal biotin on a linker: ado-ado).
T6 sequence (Q5T5U3 45-169, limits assumed, looked up): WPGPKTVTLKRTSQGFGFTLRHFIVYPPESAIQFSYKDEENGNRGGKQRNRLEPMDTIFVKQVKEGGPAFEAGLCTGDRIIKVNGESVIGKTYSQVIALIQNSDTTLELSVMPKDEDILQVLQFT
Set-up: key: below the threshold = too weak to quantify, mostly under pKd 3.1 to 4
In the case of QGLAERISVL [PRKD2, Q9BZL6], the pKd is reported as 3.93.

These binders were tested against T7, HTRA3, P83110 (assay: holdup assay). Conditions: plain residues with an end cap or a label only (N-terminal biotin on a linker: ado-ado).
T7 sequence (P83110 354-453, limits assumed, looked up): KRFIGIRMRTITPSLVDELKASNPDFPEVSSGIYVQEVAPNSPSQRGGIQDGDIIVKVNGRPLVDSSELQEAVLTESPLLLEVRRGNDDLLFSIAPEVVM
Set-up: key: below the threshold = too weak to quantify, mostly under pKd 3.1 to 4
QGLAERISVL [PRKD2, Q9BZL6] was tested, and the pKd was “below the threshold”.

The binders below were run against T8, LNX2_2, Q8N448 (assay: holdup assay). Conditions: plain residues with an end cap or a label only (N-terminal biotin on a linker: ado-ado).
T8 sequence (Q8N448 334-432, limits assumed, looked up): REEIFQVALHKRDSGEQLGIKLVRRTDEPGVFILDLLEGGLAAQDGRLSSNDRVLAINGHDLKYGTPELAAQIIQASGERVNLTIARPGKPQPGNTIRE
Set-up: key: below the threshold = too weak to quantify, mostly under pKd 3.1 to 4
QGLAERISVL [PRKD2, Q9BZL6] was tested, and the pKd was “below the threshold”.

These binders were tested against Inadl_10, Q8NI35 (assay: holdup assay). Conditions: plain residues with an end cap or a label only (N-terminal biotin on a linker: ado-ado).
Inadl_10, Q8NI35, sequence (Q8NI35 1673-1763): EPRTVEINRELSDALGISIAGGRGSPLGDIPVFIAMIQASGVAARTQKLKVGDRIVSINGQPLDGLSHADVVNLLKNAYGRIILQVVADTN
Set-up: key: below the threshold = too weak to quantify, mostly under pKd 3.1 to 4
For QGLAERISVL [PRKD2, Q9BZL6], the pKd was “below the threshold”.

These binders were tested against T9, SNTB1, Q13884 (assay: holdup assay). Conditions: plain residues with an end cap or a label only (N-terminal biotin on a linker: ado-ado).
T9 sequence (Q13884 107-205, limits assumed, looked up): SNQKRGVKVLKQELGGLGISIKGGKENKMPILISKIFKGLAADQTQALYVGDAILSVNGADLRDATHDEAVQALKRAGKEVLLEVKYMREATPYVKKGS
Set-up: key: below the threshold = too weak to quantify, mostly under pKd 3.1 to 4
QGLAERISVL [PRKD2, Q9BZL6] showed a pKd of 4.92.

These binders were tested against SCRIB_1, Q14160 (assay: holdup assay). Conditions: plain residues with an end cap or a label only (N-terminal biotin on a linker: ado-ado).
SCRIB_1, Q14160, sequence (Q14160 718-814): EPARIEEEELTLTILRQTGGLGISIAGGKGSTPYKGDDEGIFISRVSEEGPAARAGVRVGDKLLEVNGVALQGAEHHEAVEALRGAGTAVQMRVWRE
Set-up: key: below the threshold = too weak to quantify, mostly under pKd 3.1 to 4
For QGLAERISVL [PRKD2, Q9BZL6], the pKd was 3.77.

The binders below were run against NHERF4_2, Q86UT5 (assay: holdup assay). Conditions: plain residues with an end cap or a label only (N-terminal biotin on a linker: ado-ado).
NHERF4_2, Q86UT5, sequence (Q86UT5 220-308): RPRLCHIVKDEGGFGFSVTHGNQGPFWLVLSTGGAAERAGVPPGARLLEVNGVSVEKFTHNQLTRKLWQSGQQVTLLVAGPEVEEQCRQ
Set-up: key: below the threshold = too weak to quantify, mostly under pKd 3.1 to 4
In the case of QGLAERISVL [PRKD2, Q9BZL6], the pKd is reported as “below the threshold”.

What follows are binders tested against GIPC2, Q8TF65 (assay: holdup assay). Conditions: plain residues with an end cap or a label only (N-terminal biotin on a linker: ado-ado).
GIPC2, Q8TF65, sequence (Q8TF65 112-203): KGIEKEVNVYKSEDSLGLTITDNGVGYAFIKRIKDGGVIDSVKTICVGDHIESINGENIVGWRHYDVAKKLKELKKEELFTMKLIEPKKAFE
Set-up: key: below the threshold = too weak to quantify, mostly under pKd 3.1 to 4
In the case of QGLAERISVL [PRKD2, Q9BZL6], the pKd is reported as “below the threshold”.

Each binder was assayed against T10, RAPGEF6, Q8TEU7 (assay: holdup assay). Conditions: plain residues with an end cap or a label only (N-terminal biotin on a linker: ado-ado).
T10 sequence (Q8TEU7 525-625, limits assumed, looked up): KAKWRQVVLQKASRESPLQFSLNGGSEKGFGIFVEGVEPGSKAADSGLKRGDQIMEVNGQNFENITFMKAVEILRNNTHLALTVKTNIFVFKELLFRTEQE
Set-up: key: below the threshold = too weak to quantify, mostly under pKd 3.1 to 4
For QGLAERISVL [PRKD2, Q9BZL6], the pKd was “below the threshold”.

The binders below were run against T11, DFNB31_3, Q9P202 (assay: holdup assay). Conditions: plain residues with an end cap or a label only (N-terminal biotin on a linker: ado-ado).
T11 sequence (Q9P202 811-907, limits assumed, looked up): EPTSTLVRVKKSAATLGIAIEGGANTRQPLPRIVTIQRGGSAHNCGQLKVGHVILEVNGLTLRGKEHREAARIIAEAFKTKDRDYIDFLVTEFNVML
Set-up: key: below the threshold = too weak to quantify, mostly under pKd 3.1 to 4
In the case of QGLAERISVL [PRKD2, Q9BZL6], the pKd is reported as 4.26.

These binders were tested against PICK1, Q9NRD5 (assay: holdup assay). Conditions: plain residues with an end cap or a label only (N-terminal biotin on a linker: ado-ado).
PICK1, Q9NRD5, sequence (Q9NRD5 17-115): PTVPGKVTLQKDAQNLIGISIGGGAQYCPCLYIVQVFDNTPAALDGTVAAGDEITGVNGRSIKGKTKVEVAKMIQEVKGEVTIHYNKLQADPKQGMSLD
Set-up: key: below the threshold = too weak to quantify, mostly under pKd 3.1 to 4
Work on QGLAERISVL [PRKD2, Q9BZL6] yielded a pKd of 4.17.

The binders below were run against T12, APBA2_2, Q99767 (assay: holdup assay). Conditions: plain residues with an end cap or a label only (N-terminal biotin on a linker: ado-ado).
T12 sequence (Q99767 654-744, limits assumed, looked up): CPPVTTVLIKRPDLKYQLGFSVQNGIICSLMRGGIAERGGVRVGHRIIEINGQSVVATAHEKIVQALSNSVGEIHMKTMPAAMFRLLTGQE
Set-up: key: below the threshold = too weak to quantify, mostly under pKd 3.1 to 4
QGLAERISVL [PRKD2, Q9BZL6] was tested, and the pKd was “below the threshold”.

What follows are binders tested against T13, SNTG1, Q9NSN8 (assay: holdup assay). Conditions: plain residues with an end cap or a label only (N-terminal biotin on a linker: ado-ado).
T13 sequence (Q9NSN8 52-150, limits assumed, looked up): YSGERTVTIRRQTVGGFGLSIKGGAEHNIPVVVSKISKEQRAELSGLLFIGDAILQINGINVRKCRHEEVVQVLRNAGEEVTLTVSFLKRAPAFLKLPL
Set-up: key: below the threshold = too weak to quantify, mostly under pKd 3.1 to 4
In the case of QGLAERISVL [PRKD2, Q9BZL6], the pKd is reported as 3.54.

The binders below were run against PTPN3, P26045 (assay: holdup assay). Conditions: plain residues with an end cap or a label only (N-terminal biotin on a linker: ado-ado).
PTPN3, P26045, sequence (P26045 505-587): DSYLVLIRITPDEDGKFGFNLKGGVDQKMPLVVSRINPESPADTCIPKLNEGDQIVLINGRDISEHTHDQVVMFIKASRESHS
Set-up: key: below the threshold = too weak to quantify, mostly under pKd 3.1 to 4
QGLAERISVL [PRKD2, Q9BZL6] was tested, and the pKd was 4.72.

The binders below were run against IL16_3, Q14005 (assay: holdup assay). Conditions: plain residues with an end cap or a label only (N-terminal biotin on a linker: ado-ado).
IL16_3, Q14005, sequence (Q14005 1107-1207): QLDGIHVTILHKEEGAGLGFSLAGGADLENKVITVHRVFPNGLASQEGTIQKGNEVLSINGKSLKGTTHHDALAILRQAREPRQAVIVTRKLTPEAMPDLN
Set-up: key: below the threshold = too weak to quantify, mostly under pKd 3.1 to 4
With QGLAERISVL [PRKD2, Q9BZL6] the pKd was “below the threshold”.
